Drawing on article PMC10556141, “Yeast Rad52 is a homodecamer and possesses BRCA2-like bipartite Rad51 binding modes”, this text covers binding result and Kd for ten molecules.

In general, Kd refers to the equilibrium constant for the complex coming apart.

The target in series [1] is T1, Rad52 (Saccharomyces cerevisiae, UniProt P06778 1-471). In words: FRET; 45 nt sufficient to capture FRET; Anisotropy/FRET: 50 mM Tris-acetate pH 7.5, 50 mM KCl, 5 mM MgCl2, 10% glycerol, 1 mM DTT, 0.2 mg/mL BSA, 23 C; stopped flow: 50 mM Tris-acetate pH 7.5, 5 mM Mg. The note with it: protein: recombinant; chain copies: 10; label: 5'-Cy5, 3'-Cy3; single strand.
Series [2] addresses T2, Rad52ΔC (Saccharomyces cerevisiae, UniProt P06778 1-217). In words: AUC sedimentation velocity; Anisotropy/FRET: 50 mM Tris-acetate pH 7.5, 50 mM KCl, 5 mM MgCl2, 10% glycerol, 1 mM DTT, 0.2 mg/mL BSA, 23 C; stopped flow: 50 mM Tris-acetate pH 7.5, 5 mM Mg. Conditions: protein: recombinant; chain copies: 10; single strand.
Series [3] concerns the target T1, Rad52. In words: AUC sedimentation velocity; 1:1 decamer:DNA; Anisotropy/FRET: 50 mM Tris-acetate pH 7.5, 50 mM KCl, 5 mM MgCl2, 10% glycerol, 1 mM DTT, 0.2 mg/mL BSA, 23 C; stopped flow: 50 mM Tris-acetate pH 7.5, 5 mM Mg. Conditions: protein: recombinant; chain copies: 10; single strand.
The target of series [4] is T1, Rad52. In words: fluorescence anisotropy; preformed complex, reversible; Anisotropy/FRET: 50 mM Tris-acetate pH 7.5, 50 mM KCl, 5 mM MgCl2, 10% glycerol, 1 mM DTT, 0.2 mg/mL BSA, 23 C; stopped flow: 50 mM Tris-acetate pH 7.5, 5 mM Mg. Conditions: protein: recombinant; chain copies: 10; label: 5'-FAM; single strand. (In fluorescence polarisation assays a small probe gives low polarisation when free and higher when bound to something large.)

Series [5] addresses T1, Rad52. In words: competition; competes with FAM-(dT)70; Anisotropy/FRET: 50 mM Tris-acetate pH 7.5, 50 mM KCl, 5 mM MgCl2, 10% glycerol, 1 mM DTT, 0.2 mg/mL BSA, 23 C; stopped flow: 50 mM Tris-acetate pH 7.5, 5 mM Mg. Conditions: protein: recombinant; chain copies: 10; single strand.
Series [6] deals with T2, Rad52ΔC. In words: stopped-flow FRET; Anisotropy/FRET: 50 mM Tris-acetate pH 7.5, 50 mM KCl, 5 mM MgCl2, 10% glycerol, 1 mM DTT, 0.2 mg/mL BSA, 23 C; stopped flow: 50 mM Tris-acetate pH 7.5, 5 mM Mg. The note with it: protein: recombinant; chain copies: 10; label: 5'-Cy5, 3'-Cy3; single strand.
Series [7] addresses T1, Rad52. The series is described as above. The note with it: protein: recombinant; chain copies: 10; label: 5'-Cy5, 3'-Cy3; single strand.
The target of series [8] is T3, Rad51 (Saccharomyces cerevisiae, UniProt P25454 1-400). In words: stopped-flow FRET; ATP; filament on Rad52-prebound DNA; Anisotropy/FRET: 50 mM Tris-acetate pH 7.5, 50 mM KCl, 5 mM MgCl2, 10% glycerol, 1 mM DTT, 0.2 mg/mL BSA, 23 C; stopped flow: 50 mM Tris-acetate pH 7.5, 5 mM Mg. The note with it: protein: recombinant; label: 5'-Cy5, 3'-Cy3; single strand.
Series [9] addresses T1, Rad52. In words: tryptophan quenching; profile similar to (dT)84; Anisotropy/FRET: 50 mM Tris-acetate pH 7.5, 50 mM KCl, 5 mM MgCl2, 10% glycerol, 1 mM DTT, 0.2 mg/mL BSA, 23 C; stopped flow: 50 mM Tris-acetate pH 7.5, 5 mM Mg. The note with it: protein: recombinant; chain copies: 10; single strand.
Series [10] concerns the target T2, Rad52ΔC. In words: fluorescence anisotropy; stoichiometric, too tight to fit; Anisotropy/FRET: 50 mM Tris-acetate pH 7.5, 50 mM KCl, 5 mM MgCl2, 10% glycerol, 1 mM DTT, 0.2 mg/mL BSA, 23 C; stopped flow: 50 mM Tris-acetate pH 7.5, 5 mM Mg. Conditions: protein: recombinant; chain copies: 10; label: 5'-FAM; single strand.
Series [11] addresses T1, Rad52. The series is described as above. The note with it: protein: recombinant; chain copies: 10; label: 5'-FAM; single strand.
Series [12] deals with T1, Rad52. In words: tryptophan quenching; lower affinity site, two-site sequential model; Anisotropy/FRET: 50 mM Tris-acetate pH 7.5, 50 mM KCl, 5 mM MgCl2, 10% glycerol, 1 mM DTT, 0.2 mg/mL BSA, 23 C; stopped flow: 50 mM Tris-acetate pH 7.5, 5 mM Mg. The note with it: protein: recombinant; chain copies: 10; single strand.
Series [13] deals with T1, Rad52. In words: tryptophan quenching; high affinity site, two-site sequential model; Anisotropy/FRET: 50 mM Tris-acetate pH 7.5, 50 mM KCl, 5 mM MgCl2, 10% glycerol, 1 mM DTT, 0.2 mg/mL BSA, 23 C; stopped flow: 50 mM Tris-acetate pH 7.5, 5 mM Mg. The note with it: protein: recombinant; chain copies: 10; single strand.
For series [14], the target named is T2, Rad52ΔC. In words: FRET; steady-state wrapping; Anisotropy/FRET: 50 mM Tris-acetate pH 7.5, 50 mM KCl, 5 mM MgCl2, 10% glycerol, 1 mM DTT, 0.2 mg/mL BSA, 23 C; stopped flow: 50 mM Tris-acetate pH 7.5, 5 mM Mg. The note with it: protein: recombinant; chain copies: 10; label: 5'-Cy5, 3'-Cy3; single strand.
Series [15] has as its target T1, Rad52. The series is described as above. The note with it: protein: recombinant; chain copies: 10; label: 5'-Cy5, 3'-Cy3; single strand.
Series [16] has as its target T3, Rad51. In words: FRET; outcompetes prebound Rad52 or Rad52ΔC at steady state; Anisotropy/FRET: 50 mM Tris-acetate pH 7.5, 50 mM KCl, 5 mM MgCl2, 10% glycerol, 1 mM DTT, 0.2 mg/mL BSA, 23 C; stopped flow: 50 mM Tris-acetate pH 7.5, 5 mM Mg. Conditions: protein: recombinant; label: 5'-Cy5, 3'-Cy3; single strand.

B1: Cy5-(dT)45-Cy3 (ssDNA)
DNA: TTTTTTTTTTTTTTTTTTTTTTTTTTTTTTTTTTTTTTTTTTTTT
With B1, the binding result with Rad52 [1] is listed as “binds”.

B2: (dT)45 (ssDNA)
DNA: B1 DNA
On to B2, for which the binding result with Rad52ΔC [2] and with Rad52 [3] was “binds” each time.

B3: FAM-(dT)70 (ssDNA)
DNA: TTTTTTTTTTTTTTTTTTTTTTTTTTTTTTTTTTTTTTTTTTTTTTTTTTTTTTTTTTTTTTTTTTTTTT
As for B3, in the series with Rad52 [4], the binding result is “binds”.

B4: (dT)70 unlabeled (ssDNA)
DNA: B3 DNA
As for B4, in the series with Rad52 [5], the binding result is “binds”.

B5: Cy5-(dT)97-Cy3 (ssDNA)
DNA: TTTTTTTTTTTTTTTTTTTTTTTTTTTTTTTTTTTTTTTTTTTTTTTTTTTTTTTTTTTTTTTTTTTTTTTTTTTTTTTTTTTTTTTTTTTTTTTTT
Regarding B5, the binding result with Rad52ΔC [6], with Rad52 [7] and with Rad51 [8] was “binds” throughout.

B6: (dT)97 (ssDNA)
DNA: B5 DNA
For B6, the binding result with Rad52ΔC [2] and with Rad52 [3] was “binds” in each case.

B7: (dT)54 (ssDNA)
DNA: TTTTTTTTTTTTTTTTTTTTTTTTTTTTTTTTTTTTTTTTTTTTTTTTTTTTTT
For B7, in the series with Rad52 [9], the binding result is listed as “binds”.

B8: FAM-(dT)35 (ssDNA)
DNA: TTTTTTTTTTTTTTTTTTTTTTTTTTTTTTTTTTT
As to B8, the binding result in the series with Rad52ΔC [10] and in the series with Rad52 [11] was “binds” throughout.

B9: (dT)84 (ssDNA)
DNA: TTTTTTTTTTTTTTTTTTTTTTTTTTTTTTTTTTTTTTTTTTTTTTTTTTTTTTTTTTTTTTTTTTTTTTTTTTTTTTTTTTTT
Take B9: the Kd was 28 nM with Rad52 [12] and 0.0013 nM with Rad52 [13].

B10: Cy5-(dT)80-Cy3 (ssDNA)
DNA: TTTTTTTTTTTTTTTTTTTTTTTTTTTTTTTTTTTTTTTTTTTTTTTTTTTTTTTTTTTTTTTTTTTTTTTTTTTTTTTT
Consider B10, for which the binding result in the series with Rad52ΔC [14], with Rad52 [15] and with Rad51 [16] was “binds” in each case.
